The text below walks through data of paper PMC3330151.

Read-outs that look alike come from different tables or passages of the source.

Common to all, as to experiment: EMSA
The target in data set [1] is T1, RecQ helicase (Escherichia coli, UniProt P15043 1-609).
The target of data set [2] is T1, RecQ helicase. The source holds these as a separate data set.
In data set [3] the target is T1, RecQ helicase. The source holds these as a separate data set.

T1 sequence (P15043 whole entry): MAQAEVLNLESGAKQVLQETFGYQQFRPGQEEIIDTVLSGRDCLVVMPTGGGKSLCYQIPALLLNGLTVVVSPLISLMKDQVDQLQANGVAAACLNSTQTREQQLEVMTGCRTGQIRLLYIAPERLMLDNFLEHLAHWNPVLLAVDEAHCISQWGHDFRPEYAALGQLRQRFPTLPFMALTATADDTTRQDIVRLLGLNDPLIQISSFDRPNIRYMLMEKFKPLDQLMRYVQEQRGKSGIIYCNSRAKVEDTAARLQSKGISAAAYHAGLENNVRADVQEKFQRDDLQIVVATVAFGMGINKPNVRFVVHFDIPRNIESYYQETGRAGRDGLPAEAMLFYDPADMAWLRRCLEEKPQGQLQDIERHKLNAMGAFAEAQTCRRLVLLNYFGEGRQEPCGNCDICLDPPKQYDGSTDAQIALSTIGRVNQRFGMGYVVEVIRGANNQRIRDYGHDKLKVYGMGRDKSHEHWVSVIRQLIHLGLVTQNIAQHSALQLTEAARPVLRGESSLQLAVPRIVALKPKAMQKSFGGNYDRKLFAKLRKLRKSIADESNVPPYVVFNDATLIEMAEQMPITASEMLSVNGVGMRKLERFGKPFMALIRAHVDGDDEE

B1: dT52 (ssDNA)
DNA: TTTTTTTTTTTTTTTTTTTTTTTTTTTTTTTTTTTTTTTTTTTTTTTTTTTT
A word on the Kd: it is the constant that tells how readily two partners part at equilibrium. Consider B1, for which the Kd in data set [1] stood at 150 ± 20 nM; in data set [2] it was 170 ± 10 nM.
Taken in the same sequence, the figures for TTTTTTTTTTTTTTTTTTTTTTTTT (ssDNA) [dT25] were 400 ± 60 nM and 1000 ± 100 nM.
Turning to TTTTTT (ssDNA) [dT6], in data set [3], the binding result is listed as “no binding”.
